Assay results: patent US20030186329

Key:
[1] = tested on: T1, peptide (IV) of Table 1, LGGSGHYGRSGLE; assay: kinetics of peptide hydrolysis by the enzyme, HPLC, Eadie-Hofstee
T1 sequence: LGGSGHYGRSGLE

peptide LGQRGRSANAILE [2] = tested on: T2, peptide LGQRGRSANAILE; assay: as above
T2 sequence: LGQRGRSANAILE

[3] = tested on: T3, peptide (I), native cleavage sequence from plasminogen; assay: as above
T3 sequence: KKSPGRVVGGSVAH

[4] = tested on: T4, peptide (III) of Table 1, LGGSGERARGALE; assay: as above
T4 sequence: LGGSGERARGALE

peptide LGGRGRSANAILE [5] = tested on: T5, peptide LGGRGRSANAILE; assay: as above
T5 sequence: LGGRGRSANAILE

[6] = tested on: T6, peptide (II) of Table 1, LGGSGQRGRKALE; assay: as above
T6 sequence: LGGSGQRGRKALE

peptide LGGSGRSANAILE [7] = tested on: T7, peptide LGGSGRSANAILE; assay: as above
T7 sequence: LGGSGRSANAILE

peptide LGGSGRKASLSLE [8] = tested on: T8, peptide LGGSGRKASLSLE; assay: as above
T8 sequence: LGGSGRKASLSLE

peptide LGGYGRSANAILE [9] = tested on: T9, peptide LGGYGRSANAILE; assay: as above
T9 sequence: LGGYGRSANAILE

peptide LGGSGRSATRDLE [10] = tested on: T10, peptide LGGSGRSATRDLE; assay: as above
T10 sequence: LGGSGRSATRDLE

peptide LGGSGRNAQVRLE [11] = tested on: T11, peptide LGGSGRNAQVRLE; assay: as above
T11 sequence: LGGSGRNAQVRLE

peptide LGGSGRSANAILE [12] = tested on: T7, peptide LGGSGRSANAILE; assay: kinetics of peptide hydrolysis by u-PA, HPLC, Eadie-Hofstee
[13] = tested on: T12, peptide (VII) of Table 1, FRGRK; assay: kinetics of peptide hydrolysis by the enzyme, HILIC HPLC, Eadie-Hofstee
T12 sequence: FRGRK

peptide SGRS [14] = tested on: T13, peptide SGRS; assay: as above
T13 sequence: SGRS

[15] = tested on: T14, peptide (V) of Table 1, YGRS; assay: as above
T14 sequence: YGRS

peptide SGRSA [16] = tested on: T15, peptide SGRSA; assay: as above
T15 sequence: SGRSA

peptide GSGKS [17] = tested on: T16, peptide GSGKS; assay: as above
T16 sequence: GSGKS

peptide SGKS [18] = tested on: T17, peptide SGKS; assay: as above
T17 sequence: SGKS

[19] = tested on: T18, peptide (VI) of Table 1, RGRK; assay: as above
T18 sequence: RGRK

[20] = tested on: T1, peptide (IV) of Table 1, LGGSGHYGRSGLE
[21] = tested on: phage clone 34, displaying hexamer RNAQVR
[22] = tested on: phage clone 36, displaying hexamer RSAKVD
[23] = tested on: phage 33, displaying hexamer RSANAI
[24] = tested on: T12, peptide (VII) of Table 1, FRGRK
[25] = tested on: phage clone 40, displaying hexamer RSSSSH
[26] = tested on: phage clone 37, displaying hexamer RKASLS
peptide SGRS [27] = tested on: T13, peptide SGRS
peptide LGQRGRSANAILE [28] = tested on: T2, peptide LGQRGRSANAILE
[29] = tested on: T3, peptide (I), native cleavage sequence from plasminogen
[30] = tested on: T14, peptide (V) of Table 1, YGRS
[31] = tested on: phage clone 39, displaying hexamer RSAVVK
peptide SGRSA [32] = tested on: T15, peptide SGRSA
[33] = molecular target: fusion of maltose binding protein, QRGRSA and the HY4 gene product of Arabidopsis thaliana (UniProt Q43125)
fusion of maltose binding protein, QRGRSA and the HY4 gene product of Arabidopsis thaliana, sequence (Q43125 other isoform, or with tags, fused parts or gaps): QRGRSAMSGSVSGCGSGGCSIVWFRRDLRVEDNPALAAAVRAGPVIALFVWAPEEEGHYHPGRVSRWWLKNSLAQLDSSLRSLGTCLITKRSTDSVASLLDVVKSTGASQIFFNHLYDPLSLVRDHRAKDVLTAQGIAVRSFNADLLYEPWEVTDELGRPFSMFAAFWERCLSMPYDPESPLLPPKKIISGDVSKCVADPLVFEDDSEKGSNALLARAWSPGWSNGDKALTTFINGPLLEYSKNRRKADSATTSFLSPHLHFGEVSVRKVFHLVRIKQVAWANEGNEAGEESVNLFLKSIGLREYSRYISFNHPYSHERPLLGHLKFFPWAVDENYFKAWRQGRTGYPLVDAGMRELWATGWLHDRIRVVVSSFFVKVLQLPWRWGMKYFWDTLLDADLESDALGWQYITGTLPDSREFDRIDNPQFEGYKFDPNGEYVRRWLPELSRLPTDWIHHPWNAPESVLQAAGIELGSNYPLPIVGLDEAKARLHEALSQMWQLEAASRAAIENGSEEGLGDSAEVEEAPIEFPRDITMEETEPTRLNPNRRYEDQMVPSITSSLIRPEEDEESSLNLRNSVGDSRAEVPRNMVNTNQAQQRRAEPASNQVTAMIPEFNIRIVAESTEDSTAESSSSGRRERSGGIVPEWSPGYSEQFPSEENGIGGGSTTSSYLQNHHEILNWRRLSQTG

[34] = tested on: T4, peptide (III) of Table 1, LGGSGERARGALE
[35] = tested on: phage clone 38, displaying hexamer RRAVSN
peptide LGGRGRSANAILE [36] = tested on: T5, peptide LGGRGRSANAILE
[37] = tested on: phage clone 35, displaying hexamer RSATRD
[38] = tested on: T6, peptide (II) of Table 1, LGGSGQRGRKALE
peptide GSGKS [39] = tested on: T16, peptide GSGKS
peptide LGGSGRSANAILE [40] = tested on: T7, peptide LGGSGRSANAILE
peptide SGKS [41] = tested on: T17, peptide SGKS
peptide LGGSGRKASLSLE [42] = tested on: T8, peptide LGGSGRKASLSLE
peptide LGGYGRSANAILE [43] = tested on: T9, peptide LGGYGRSANAILE
peptide LGGSGRSATRDLE [44] = tested on: T10, peptide LGGSGRSATRDLE
[45] = tested on: T18, peptide (VI) of Table 1, RGRK
peptide LGGSGRNAQVRLE [46] = tested on: T11, peptide LGGSGRNAQVRLE

“urokinase-type plasminogen activator (u-PA)” showed a Km [1] of 3800 µM, a Km (peptide LGQRGRSANAILE [2]) of 1500 µM and a Km [3] of 3400 µM. For the same substance, the Km [4] was 970 µM, the Km (peptide LGGRGRSANAILE [5]) was 1200 µM and the Km [6] was 2180 µM. It also gave a Km (peptide LGGSGRSANAILE [7]) of 603 µM, a Km (peptide LGGSGRKASLSLE [8]) of 1130 µM and a Km (peptide LGGYGRSANAILE [9]) of 2200 µM. For the same substance, the Km (peptide LGGSGRSATRDLE [10]) was 733 µM, the Km (peptide LGGSGRNAQVRLE [11]) was 1160 µM and the “fold reduction of Km against control peptide (I)” value (peptide LGGSGRSANAILE [12]) was “reduced by a factor of 5.6”. The Km [13] was 8600 µM, the Km (peptide SGRS [14]) was 2100 µM and the Km [15] was 11400 µM. For the same substance, the Km (peptide SGRSA [16]) was 3100 µM, the Km (peptide GSGKS [17]) was 4250 µM and the Km (peptide SGKS [18]) was 7900 µM. The Km [19] was 46500 µM, the kcat [20] was 0.059 s⁻¹ and the kcat/Km [20] was 15 M⁻¹ s⁻¹. The “dot blot analysis under the most stringent conditions of digestion” value (“dot blot analysis” for short) [21] was “proved to be particularly labile u-PA substrates”, the “dot blot analysis” value [22] was “proved to be particularly labile u-PA substrates” and the “dot blot analysis” value [23] was “proved to be particularly labile u-PA substrates”. For the same substance, the kcat [24] was 0.14 s⁻¹, the kcat/Km [24] was 16 M⁻¹ s⁻¹ and the “dot blot analysis” value [25] was “proved to be particularly labile u-PA substrates”. The “dot blot analysis” value [26] was “proved to be particularly labile u-PA substrates”, the kcat (peptide SGRS [27]) was 2.3 s⁻¹ and the kcat/Km (peptide SGRS [27]) was 1100 M⁻¹ s⁻¹. It also gave a kcat (peptide LGQRGRSANAILE [28]) of 0.068 s⁻¹, a kcat/Km (peptide LGQRGRSANAILE [28]) of 45 M⁻¹ s⁻¹ and a kcat [29] of 0.003 s⁻¹. For the same substance, the kcat/Km [29] was 0.88 M⁻¹ s⁻¹, the kcat [30] was 2.6 s⁻¹ and the kcat/Km [30] was 230 M⁻¹ s⁻¹. The “dot blot analysis” value [31] was “proved to be particularly labile u-PA substrates”, the kcat (peptide SGRSA [32]) was 3.7 s⁻¹ and the kcat/Km (peptide SGRSA [32]) was 1200 M⁻¹ s⁻¹. For the same substance, the “cleavage of fusion protein, SDS-PAGE” value [33] was “whereas u-PA did not”, the kcat [34] was 0.004 s⁻¹ and the kcat/Km [34] was 4 M⁻¹ s⁻¹. The “dot blot analysis” value [35] was “proved to be particularly labile u-PA substrates”, the kcat (peptide LGGRGRSANAILE [36]) was 0.08 s⁻¹ and the kcat/Km (peptide LGGRGRSANAILE [36]) was 67 M⁻¹ s⁻¹. For the same substance, the “dot blot analysis” value [37] was “proved to be particularly labile u-PA substrates”, the kcat [38] was 0.02 s⁻¹ and the kcat/Km [38] was 9.2 M⁻¹ s⁻¹. The kcat (peptide GSGKS [39]) was 0.82 s⁻¹, the kcat/Km (peptide GSGKS [39]) was 193 M⁻¹ s⁻¹ and the “fold improvement as substrate against control peptide (I)” value (peptide LGGSGRSANAILE [40]) was “by factors of 840-5300”. The “fold increase of kcat against control peptide (I)” value (peptide LGGSGRSANAILE [40]) was “increased by a factor of more than 940”, the kcat (peptide LGGSGRSANAILE [40]) was 2.83 s⁻¹ and the kcat/Km (peptide LGGSGRSANAILE [40]) was 4700 M⁻¹ s⁻¹. The “fold decrease of catalytic efficiency against peptide (VI) SGRS” value (peptide SGKS [41]) was “by a factor of 7 for u-PA”, the kcat (peptide SGKS [41]) was 1.22 s⁻¹ and the kcat/Km (peptide SGKS [41]) was 154 M⁻¹ s⁻¹. For the same substance, the kcat (peptide LGGSGRKASLSLE [42]) was 1.14 s⁻¹, the kcat/Km (peptide LGGSGRKASLSLE [42]) was 1010 M⁻¹ s⁻¹ and the kcat (peptide LGGYGRSANAILE [43]) was 0.7 s⁻¹. For the same substance, the kcat/Km (peptide LGGYGRSANAILE [43]) was 318 M⁻¹ s⁻¹, the “fold improvement as substrate against control peptide (I)” value (peptide LGGSGRSATRDLE [44]) was “by factors of 840-5300” and the kcat (peptide LGGSGRSATRDLE [44]) was 0.54 s⁻¹. It also gave a kcat/Km (peptide LGGSGRSATRDLE [44]) of 740 M⁻¹ s⁻¹, a kcat [45] of 0.76 s⁻¹ and a kcat/Km [45] of 16 M⁻¹ s⁻¹. It also gave a kcat (peptide LGGSGRNAQVRLE [46]) of 3.69 s⁻¹ and a kcat/Km (peptide LGGSGRNAQVRLE [46]) of 3200 M⁻¹ s⁻¹.
